Assay results reported in patent publication US5424205A, “Amyloidin protease and uses thereof” (Athena Neurosciences, Inc., priority 1993, dated 1995).
Entries after “also recorded” stand apart in the source; their conditions may differ.

Experiments:
brain protease = settings: Abraham et al; cited from earlier work
human skin chymase (HSC) = settings: known before; cited from earlier work
RMCP I [1] = experiment: Inhibition of RMCP I, Suc-Ala-Ala-Pro-Phe-pNA hydrolysing activity; format: biochemical, rat; settings: pre-treatment with 200 ng
RMCP I [2] = experiment: Inhibition of RMCP I, APP592-601 cleaving activity; format: biochemical, rat; settings: pre-treatment with 200 ng
amyloidin = biological target: T1, amyloidin (Homo sapiens, UniProt P52888); experiment: Inhibition of amyloidin by various inhibitors (APP592-601 peptide cleavage); format: biochemical
T1 construct: from tissue; a purification from blood is also described
T1 sequence (P52888 whole entry): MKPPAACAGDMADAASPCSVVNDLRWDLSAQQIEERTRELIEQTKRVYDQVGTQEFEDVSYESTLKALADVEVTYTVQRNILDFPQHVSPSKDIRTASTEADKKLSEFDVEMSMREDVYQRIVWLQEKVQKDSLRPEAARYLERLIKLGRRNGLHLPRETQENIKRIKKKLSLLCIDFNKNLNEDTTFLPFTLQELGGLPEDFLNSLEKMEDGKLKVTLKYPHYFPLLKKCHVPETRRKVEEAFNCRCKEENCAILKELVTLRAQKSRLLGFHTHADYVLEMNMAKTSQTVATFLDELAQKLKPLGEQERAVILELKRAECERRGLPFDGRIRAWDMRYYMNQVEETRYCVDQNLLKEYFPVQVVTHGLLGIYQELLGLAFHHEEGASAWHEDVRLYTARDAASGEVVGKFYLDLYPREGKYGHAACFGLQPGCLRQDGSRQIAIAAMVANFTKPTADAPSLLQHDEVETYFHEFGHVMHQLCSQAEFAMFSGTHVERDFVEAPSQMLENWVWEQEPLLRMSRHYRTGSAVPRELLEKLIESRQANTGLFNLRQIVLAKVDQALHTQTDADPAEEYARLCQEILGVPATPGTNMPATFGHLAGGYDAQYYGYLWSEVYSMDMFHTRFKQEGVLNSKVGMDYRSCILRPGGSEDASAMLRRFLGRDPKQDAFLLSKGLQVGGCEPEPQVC

RMCP I [3] = settings: known before; listed as α1 -antichymotrypsin; cited from earlier work

% Control Activity (amyloidin; assay conc. 30 ug/ml, 30 min pre-incubation, room temperature): 121%
B1: α1-ACT: general plasma serine proteinase inhibitor (protein, UniProt P01011 24-423, looked up)
Alpha-1-antichymotrypsin: HPNSPLDEENLTQENQDRGTHVDLGLASANVDFAFSLYKQLVLKAPDKNVIFSPLSISTALAFLSLGAHNTTLTEILKGLKFNLTETSEAEIHQSFQHLLRTLNQSSDELQLSMGNAMFVKEQLSLLDRFTEDAKRLYGSEAFATDFQDSAAAKKLINDYVKNGTRGKITDLIKDLDSQTMMVLVNYIFFKAKWEMPFDPQDTHQSRFYLSKKKWVMVPMMSLHHLTIPYFRDEELSCTVVELKYTGNASALFILPDQDKMEEVEAMLLPETLKRWRDSLEFREIGELYLPKFSISRDYNLNDILLQLGIEEAFTSKADLSGITGARNLAVSQVVHKAVLDVFEEGTEASAATAVKITLLSALVETRTIVRFNRPFLMIIVPTDTQNIFFMSKVTNPKQA
inhibition of peptide cleavage by brain protease (brain protease): inhibited | inhibition of HSC, as known (human skin chymase (HSC)): inhibitable | inhibition of Suc-Ala-Ala-Pro-Phe-pNA hydrolysing activity (RMCP I [1]): completely eliminated | inhibition of APP592-601 cleaving protease activity (RMCP I [2]): completely inhibited | inhibitory effect on amyloidin (amyloidin; in words): Neither α-1-proteinase inhibitor or α-1-antichymotrypsin, two general plasma serine proteinase inhibitors, had any inhibitory effect | inhibition of RMCP I, as known (RMCP I [3]): strong inhibitor of RMCP I; also recorded: inhibitable
